Data as given in PMC10273302 (Science (New York, N.Y.), 2023).
Substitutions are numbered along the chain they refer to.

T1: influenza A minimal peptide VPNGTLVKTITNDQI (spotted for dot blot) (Influenza A virus (H3 hemagglutinin …))
T1 chain: VPNGTLVKTITNDQI

B1: flu_c326 (antibody, V domains shown)
VH: EVQLVQSGAEVKKPGESLKISCRTSGFTFTRHWIAWVRQMPGKGLEWMGIIYPGDSDVTYNPSFQGQVTISADKSITTAYLQWSSLQASDTAIYFCAKPYNYCNTTTCYTRGYFDFWGRGTLVTVSS
VL: DIVMTQSPDSLAVSLGERATINCKSSQSLLYRSDNKNYLAWYQQNPGQPPKLLIYWASIRESGVSDRFSGSGSGTDFTLTINSLQAEDVAVYYCQQYYFTPYTFGQGTKLEIK
notes: recombinant human IgG
B2: flu_c357 (antibody, V domains shown)
VH: EVQLVQSGAEVKKPGESLKISCKTSGFKFTSHWIAWVRQMPGKGLEWMGIIYPGDSDTRYNPSFEGQVTVSADKSINTAYLQWSSLKASDTAMYYCARLPHRESGNVSTTWGWFDPWGQGTLVTISS
VL: DIVLTQSPDSLAVSLGERATINCKSSHNVLYISNSKNYLAWYQQKPGQPPKLLIYWASTRESGVPDRFSGSGSGTDFTLTISSLQPEDVAVYYCQQYFSTPYTFGQGTRLEIK
notes: recombinant human IgG
B3: clonotype3 (10x_4) (antibody, V domains shown)
VH: EVQLVQSGAEVKKPGESLKISCKVSGYSFTTYWIAWVRQMPGKGLEWMGIIYPGDSDTRYSPSFQGQVTISADKSVTTAYLQWGSVKASDTAMYYCARPPHFIDAGGRQTPGYFDLWGQGTLVTVSS
VL: DIVMTQSPDSLAVSLGERATINCKSSQTVLFRSNNKNYLAWYQQKPGQPPKLLIYWASTRQSGVPDRFSGSGSGTDFTLTISSLQAEDVALYFCQQYHDSPYTFGQGTKVEIK
B4: clonotype2760 (Quake) (antibody, V domains shown)
VH: EVQLVQSEIEVRKPGESLKISCKGSGYNFATHWIGWVRQMPGKGLEWMGTIYPLDSDTRYSPYFQGQVTISADKSINTAYLQWNSLKASDTAMYYCARVPEGSVVAGEVHFYYYMDVWGKGTAVTVSS
VL: DIVMTQSPDSLAVSLGERATINCKSSQSLLYSSNNRNYLAWYQHKPGQPPKLLMYWASTRESGVPDRFSGGGSETDFTLTISSLQAEDVAMYYCQQYYFTPYTFGQGTKLEIK
B5: flu_c504 (antibody, V domains shown)
VH: EVQLVQSGAEVKKPGESLKISCKASGYTFTRYWIAWVRQMPGKGLEWMGIIYPGDSDTRYNPSFQGQVTISADKSINTAYLQWSSLKASDTAIYYCAMCVGSPTCYGWFDPWGQGTLVTVSS
VL: B2 VL with L4M, H27L, V29I, I32S, S35K, P86A, F98H, T100I, T108S, R109K
B6: clonotype473 (10x_4) (antibody, V domains shown)
VH: EVQLVQSGAEVKKPGESLRISCKGSGYTFSTHWIGWVRHMPGKGLEWVGVIYPDDSDTRLSPSFQGQVTISADKSTTTAFLWWSSLKASDTATYYCARGVQSCIRNTCSFYGWFDRWGQGTRVTVSS
VL: DIVMTQSPDSLAVSLGERATIYCKSSHSLLYSSNNYNYLAWYQQKPGQPPKLLIYWASTRESGVPDRFSGSGSGTDFTLTISSLQAADVAVYYCQQYFYSPYTFGQGTKVEIR
B7: flu_c645 (antibody, V domains shown)
VH: EVQLVQSGAEVKKPGESLKISCQASGYIFVNYWVGWLRQAPGKGLEWIGIIFPGDSDTTYSPSFQGQVTISAAKSINTVYLQWNSLKASDTAMYYCARAPVPGMSGWFDPWGQGTLVTVSS
VL: DIVMTQSPDSLAVSLGGGATIKCKSSHSLLYSSNSKNYLSWYQQKPGQPPKLLFYWASTRESGVPDRFSGSGSGTDFTLTIDSLQAEDLAVYFCQQYFYTPYTFGQGTKLEIN
B8: clonotype286 (10x_4) (antibody, V domains shown)
VH: EVQLVQSGPEVKEPGESLKISCKASGYNFAKYWIAWVRQMPGKGLEWMGIVYPGDSDTRYSPSFQGQVTISADKSLTTAYLQWSSLKASDTAIYYCARGVQDCDSRNCYAYNWFDPWGQGTLVTVSS
VL: DIVMTQSPESLAVSLGERATINCKSSHSVFFSSNNKNYLSWYQQKPGQPPKLLIYWASTRQSGVPDRFSGGGSGTDFTLTISSLQAEDVAVYYCQQYYYSPYTFGQGTKLEIK
B9: clonotype4582 (Quake) (antibody, V domains shown)
VH: EVQLVQSGAEVKKPGESLKISCKASGYTFTNYWIAWVRQMPGKGLEWMGIIFPSDSDTRYSPSFQGQVTISADKSVSTAYLQWSSLKASDTAMYYCARGAATILRGVVTSYNWFDSWGQGTLVTVSS
VL: DVVMTQSPDSLAASLGERATINCTSSHNILYNSNNNNYLAWYQQKPGQPPKLLIYWASTRESGVPDRFSGSGSGTDFTLTISSLQAEDVAVYSCQQYFSTPYTFGQGTKLEIK

What follows are binders tested against T2, influenza A H3 hemagglutinin ectodomain trimer, A/Aichi/02/1968 (Influenza A virus A/Aichi/2/1968 (H3N2, …, UniProt P03437)) (assay: ELISA). Settings: both partners purified.
T2 construct: source: Expi293, transient transfection, purified (Ni-NTA, SEC)

| Binder | binding result |
| --- | --- |
| B1 | binds |
| B2 | binds |

Target: T1, influenza A minimal peptide …
Assay: not given
Settings: not given

| Binder | binding result |
| --- | --- |
| B3 | binds |
| B4 | binds |
| B5 | binds |
| B6 | binds |
| B7 | binds |
| B8 | binds |
| B9 | binds |
